T1: acyl-ACP thioesterase ChFatB2 from Cuphea hookeriana, excluding the transit peptide (residues 129-395) (Cuphea hookeriana, UniProt Q39514 129-395)
T1 sequence (looked up): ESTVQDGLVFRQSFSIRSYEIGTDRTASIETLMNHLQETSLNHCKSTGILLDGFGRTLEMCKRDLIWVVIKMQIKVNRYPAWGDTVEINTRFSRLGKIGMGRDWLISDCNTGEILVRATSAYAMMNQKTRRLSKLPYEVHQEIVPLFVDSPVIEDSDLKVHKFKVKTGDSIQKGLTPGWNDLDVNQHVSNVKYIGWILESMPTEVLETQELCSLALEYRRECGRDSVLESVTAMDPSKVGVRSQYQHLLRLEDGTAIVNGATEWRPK

B1: C8-acyl acyl carrier protein 2 from Cuphea lanceolata (residues 54-137) (natural protein, UniProt P52412 54-137, looked up)
chain: QAKPETVTKVCNIVKKQLALPDDSDVSGVSKFSALGADSLDTVEIVMGLEEEFGISVEEESAQSIQTVQDAADLIEKLMEKKGH
modifications: C8 (8:0) acyl chain on the phosphopantetheine of holo-ACP (residue not given)
notes: acyl carrier protein ClACP2, Cuphea lanceolata, UniProt P52412, residues 54-137, excluding the chloroplast transit peptide; also called C8-ClACP2
B2: C10-acyl acyl carrier protein 2 from Cuphea lanceolata (residues 54-137) (natural protein, UniProt P52412 54-137, looked up)
chain: B1 chain
modifications: C10 (10:0) acyl chain on the phosphopantetheine of holo-ACP (residue not given)
notes: acyl carrier protein ClACP2, Cuphea lanceolata, UniProt P52412, residues 54-137, excluding the chloroplast transit peptide; also called C10-ClACP2
B3: C8-acyl acyl carrier protein from Escherichia coli (natural protein)
chain: STIEERVKKIIGEQLGVKQEEVTNNASFVEDLGADSLDTVELVMALEEEFDTEIPDEEAEKITTVQAAIDYINGHQA
modifications: C8 (8:0) acyl chain on the phosphopantetheine of holo-ACP (residue not given)
notes: also called C8-EcACP; C8-ACP
B4: C10-acyl acyl carrier protein from Escherichia coli (natural protein)
chain: B3 chain
modifications: C10 (10:0) acyl chain on the phosphopantetheine of holo-ACP (residue not given)
notes: also called C10-EcACP
B5: holo acyl carrier protein 2 from Cuphea lanceolata, excluding the chloroplast transit peptide (residues 54-137) (natural protein, UniProt P52412 54-137, looked up)
chain: B1 chain
modifications: holo form (phosphopantetheine; residue not given)
notes: acyl carrier protein ClACP2, Cuphea lanceolata, UniProt P52412, residues 54-137, excluding the chloroplast transit peptide; also called holo-ClACP2; ClACP2; source: E. coli BAP1 (chromosomal B. subtilis Sfp), purified (Ni-NTA, Superdex 200)
B6: holo acyl carrier protein from Escherichia coli (natural protein)
chain: B3 chain
modifications: holo form (phosphopantetheine; residue not given)
notes: also called holo-EcACP; EC-holo-ACP; source: E. coli BAP1 (chromosomal B. subtilis Sfp), purified (Ni-NTA, Superdex 200)

The binders below were run against T1, acyl-ACP thioesterase ChFatB2 from … (assay: cell-based or functional assay). Conditions: not given.

Binder | relative activity of ChFatB2 (thioesterase, DTNB assay) [µmol/min/mg]
B1 | 0.51
B2 | 0.33
B3 | 0.07
B4 | 0.17

Biological target: T1, acyl-ACP thioesterase ChFatB2 from …
Test: cell-based or functional assay
Conditions: not given
Remark: another data set of the same source

Binder | Km of ChFatB2 thioesterase activity (DTNB assay, Michaelis-Menten fit) [µM]
B1 | 217
B2 | 263
B3 | 350
B4 | 186

These binders were tested against T1, acyl-ACP thioesterase ChFatB2 from … (assay: liquid crystal assay; ChFatB2 (5 μg/mL, 1.5 µL) dried on DMOAP-coated glass slides; ACP solutions (10 μg/mL, 1.5 µL) deposited on the immobilized ChFatB2, 30 min, washed with deionized water; grayscale of polarised-light images of the liquid crystal cell (Image J); semi-quantitative; holo-ACP defined as 100% binding). Conditions: both partners purified.

Binder | grayscale of the liquid crystal image [grayscale]
B1 | 139 ± 6
B5 | 145 ± 19.1
B2 | 96.7 ± 11
B3 | 106 ± 11.8
B6 | 156 ± 3.2
B4 | 138 ± 5.3

Reference: article PMC10095102, “Conformational Changes of Acyl Carrier Protein Switch the Chain Length Preference of Acyl-ACP Thioesterase ChFatB2” (International Journal of Molecular Sciences, 2023)
